# Data reported in PMC4952014.
# Biological target: immobilized trimeric proteins
# Assay: SPR; reverse set-up: JR-FL gp120 (900 RU), JR-FL FD gp145 (1400 RU), SF162 FD gp145 (900 RU) or Soc-V1V2JR-FL amine-coupled to CM5 chips; Siglec-1 injected in 10 mM HEPES, 150 mM NaCl pH 7.4, 30 µl/min; some runs with 50 nM Siglec-1 and lactose, 6'-sialyllactose or sialic acid
substance,measurement,value
Siglec-1 (recombinant protein used for SPR) (from UniProt Q9BZZ2 20-1709) (receptor),fold less affinity than trimeric proteins on immobilized Siglec-1,10 to 20 fold
